This is an account of results in the RNAGym collection of RNA variant scans (doi:10.7554/elife.90254).

The chains are these.
B1: OR4K15 (parent)
chain: GUUAACGGUCAUAGGCCAUGGAAACUAGGAGCACCAUUUCGCUGCCAGUGAAGAAAUGAACAAAGAAAAUCUGGGCCAGGCAGGCAUCAAAAGAAAUAGUCUUGCGCUCAACCAGAAAGUCUGUAAUCAUUUUAAGGGUA

This data set covers variants of B1. Kind of data set: self-cleavage, relative activity (ratio to wild type); higher = more cleavage; in vitro, sequencing; the parent is a self-cleaving ribozyme.
Turning to GUUAACGGUCAUAGGCCAUGGAAACUAGGAGCACCAUUUCGCUGCCAGUGAAGAAAUGAACAAAGAAAAUCUGGGCCAGGCAGGCAUCAAAAGCAAUAGUCUUGCGCUCAACCAGUAAGUCUGUAAUCAUUUUAAGGGUA [A94C A116U], the self-cleavage was found to be 0.18.
For the variant GUUAACGGUCAUAGGCCAUGGAAACUAGGAGCACCAUUUCGCUGCCAGUGAAGAAAUGAACAAAGAAAAUCUGGGCCAGGCAGGCAUCAAAAGGUAUAGUCUUGCGCUCAACCAGAAAGUCUGUAAUCAUUUUAAGGGUA [A94G A95U], the self-cleavage amounted to 2.66.
The value for GUUAACGGUCAUAGGCCAUGGAAACUAGGAGCACCAUUUCGCUGCCAGUGAAGAAAUGAACAAAGAAAAUCUGGGCCAGGCAGGCAUCAAAAGGAAUAGUCUUGCGCUCAACCAGAAAGUCUGUAAUCAUUUUUAGGGUA [A94G A134U] was 1.58; that for GUUAACGGUCAUAGGCCAUGGAAACUAGGAGCACCAUUUCGCUGCCAGUGAAGAAAUGAACAAAGAAAAUCUGGGCCAGGCAGGCAUCAAAAGGAUUAGUCUUGCGCUCAACCAGAAAGUCUGUAAUCAUUUUAAGGGUA [A94G A96U] was 0.68.
The value for GUUAACGGUCAUAGGCCAUGGAAACUAGGAGCACCAUUUCGCUGCCAGUGAAGAAAUGAACAAAGAAAAUCUGGGCCAGGCAGGCAUCAAAAGGAGUAGUCUUGCGCUCAACCAGAAAGUCUGUAAUCAUUUUAAGGGUA [A94G A96G] was 1.35; that for GUUAACGGUCAUAGGCCAUGGAAACUAGGAGCACCAUUUCGCUGCCAGUGAAGAAAUGAACAAAGAAAAUCUGGGCCAGGCAGGCAUCAAAAGGAAUAGUCUUGCGCUCAACCAGAAAGUCUGUAAUCAUUUUAAGGGUU [A94G A140U] was 0.72.
The value for GUUAACGGUCAUAGGCCAUGGAAACUAGGAGCACCAUUUCGCUGCCAGUGAAGAAAUGAACAAAGAAAAUCUGGGCCAGGCAGGCAUCAAAAGGAAUAGUCUUGCGCUCAACCAGAAGGUCUGUAAUCAUUUUAAGGGUA [A94G A118G] was 0.8; that for GUUAACGGUCAUAGGCCAUGGAAACUAGGAGCACCAUUUCGCUGCCAGUGAAGAAAUGAACAAAGAAAAUCUGGGCCAGGCAGGCAUCAAAAGGAAUGGUCUUGCGCUCAACCAGAAAGUCUGUAAUCAUUUUAAGGGUA [A94G A98G] was 0.27; that for GUUAACGGUCAUAGGCCAUGGAAACUAGGAGCACCAUUUCGCUGCCAGUGAAGAAAUGAACAAAGAAAAUCUGGGCCAGGCAGGCAUCAAAAGGAAUAGUCUUGCGCUCAACCAGGAAGUCUGUAAUCAUUUUAAGGGUA [A94G A116G] was 0.39.
As for GUUAACGGUCAUAGGCCAUGGAAACUAGGAGCACCAUUUCGCUGCCAGUGAAGAAAUGAACAAAGAAAAUCUGGGCCAGGCAGGCAUCAAAAGGAAUAGUCUUGCGCUCAACCAGCAAGUCUGUAAUCAUUUUAAGGGUA [A94G A116C], the self-cleavage was 0.24.
The value for GUUAACGGUCAUAGGCCAUGGAAACUAGGAGCACCAUUUCGCUGCCAGUGAAGAAAUGAACAAAGAAAAUCUGGGCCAGGCAGGCAUCAAAAGGAAUAGUCUUGCGCUCAACCAGUAAGUCUGUAAUCAUUUUAAGGGUA [A94G A116U] was 0.38; that for GUUAACGGUCAUAGGCCAUGGAAACUAGGAGCACCAUUUCGCUGCCAGUGAAGAAAUGAACAAAGAAAAUCUGGGCCAGGCAGGCAUCAAAAGCAAUAGCCUUGCGCUCAACCAGAAAGUCUGUAAUCAUUUUAAGGGUA [A94C U100C] was 2.31; that for GUUAACGGUCAUAGGCCAUGGAAACUAGGAGCACCAUUUCGCUGCCAGUGAAGAAAUGAACAAAGAAAAUCUGGGCCAGGCAGGCAUCAAAAGGAAUAGUCUUGCGCUCAACCAGAAAGUCUGUAAUCGUUUUAAGGGUA [A94G A129G] was 1.29.
The value for GUUAACGGUCAUAGGCCAUGGAAACUAGGAGCACCAUUUCGCUGCCAGUGAAGAAAUGAACAAAGAAAAUCUGGGCCAGGCAGGCAUCAAAAGGAAUAGUCUUGCGCUCAACCAGAGAGUCUGUAAUCAUUUUAAGGGUA [A94G A117G] was 1.92; that for GUUAACGGUCAUAGGCCAUGGAAACUAGGAGCACCAUUUCGCUGCCAGUGAAGAAAUGAACAAAGAAAAUCUGGGCCAGGCAGGCAUCAAAAGGAAUAGUCUUGCGCUCAACCAGAAAGUCUGUAGUCAUUUUAAGGGUA [A94G A126G] was 1.3; that for GUUAACGGUCAUAGGCCAUGGAAACUAGGAGCACCAUUUCGCUGCCAGUGAAGAAAUGAACAAAGAAAAUCUGGGCCAGGCAGGCAUCAAAAGGAAUAGUCUUGCGCUCAACCAGAAAGUCUGUAUUCAUUUUAAGGGUA [A94G A126U] was 1.08.
The value for GUUAACGGUCAUAGGCCAUGGAAACUAGGAGCACCAUUUCGCUGCCAGUGAAGAAAUGAACAAAGAAAAUCUGGGCCAGGCAGGCAUCAAAAGGAAUAGUCUUGCGCUCAACCAGAAAGUCUGUACUCAUUUUAAGGGUA [A94G A126C] was 0.82; that for GUUAACGGUCAUAGGCCAUGGAAACUAGGAGCACCAUUUCGCUGCCAGUGAAGAAAUGAACAAAGAAAAUCUGGGCCAGGCAGGCAUCAAAAGGAAUAGUCUUGCGCUCAACCGGAAAGUCUGUAAUCAUUUUAAGGGUA [A94G A114G] was 0.36; that for GUUAACGGUCAUAGGCCAUGGAAACUAGGAGCACCAUUUCGCUGCCAGUGAAGAAAUGAACAAAGAAAAUCUGGGCCAGGCAGGCAUCAAAAGGAAUAGUCUUGCGCUCAACCAGAAAGUCUGUAAUCAUUUUAAGGGUA [A94G] was 1.39.
On to GUUAACGGUCAUAGGCCAUGGAAACUAGGAGCACCAUUUCGCUGCCAGUGAAGAAAUGAACAAAGAAAAUCUGGGCCAGGCAGGCAUCAAAAGGAAUAGUCUUGCGCUCAACCAGAAAGUCUGUAAUCAUUUUAUGGGUA [A94G A135U], for which the self-cleavage was found to be 1.8.
In the case of GUUAACGGUCAUAGGCCAUGGAAACUAGGAGCACCAUUUCGCUGCCAGUGAAGAAAUGAACAAAGAAAAUCUGGGCCAGGCAGGCAUCAAAAGGAAUAGUCUUGCGCUCAGCCAGAAAGUCUGUAAUCAUUUUAAGGGUA [A94G A111G], the self-cleavage came to 0.03.
